Source: paper PMC9804390

Columns and labels:
Assay in all cases: SPR
[1] = biological target: LRP1 CR doublet CR.22-23 (human)
[2] = biological target: LRP1 CR doublet CR.27-28 (human)
[3] = biological target: low density lipoprotein receptor-related protein 1 (LRP1) (UniProt Q07954)
[4] = biological target: LRP1 cluster II (CR.3–10) (UniProt Q07954)
[5] = biological target: LRP1 CR.7–8 doublet (UniProt Q07954)
[6] = biological target: LRP1 CR.6–7 doublet
[7] = biological target: LRP1 CR.6–8 triplet
[8] = biological target: LRP1 cluster IV (CR.21–31) (UniProt Q07954)
[9] = biological target: LRP1 CR doublet CR.5-6 (human)

Which results are given for “B domain-deleted factor VIII (recombinant, product C) (natural protein)”?
Kd [1]: 172 nM; Kd [2]: 165 nM

What does the source list for “Recombinant full-length FVIII (product A) (natural protein)”?
Kd [3]: 22.8 nM; Kd [4]: 11.3 nM; Kd [5]: 81.5 nM; Kd [6]: 65.2 nM; Kd [7]: 28.4 nM; Kd [8]: 19.6 nM

With “Recombinant full-length factor VIII (natural protein)” as the substance, how does the Kd [9] read?
Its Kd is 131 nM.
